A protein production outcome set (Wang et al. 2014)

Experiment: label from the status in PepcDB records

| Sequence | protein production |
| --- | --- |
| MNNGQPLKHRGVTVEDLLRLRSVRDPHYASDGTHGVFVQKSIDEEKQYCSHLYIWTEDGAVRQWTFGRWRDTRPRFSPDSKTIAFLSDRSGHTQLWLLPADGGEARQLTFFKNGVRDYVWAPDGTFLIALTTLGDNETIDDREEPKKKETKPADLKPRVVERLYYKSDASGFLDGKQAVLVCIDATSGKTEALTSREEEISSFAISPNGRTLAFMANRNEDPDTTFTRDIVLLDLESKAETNLTKGSGTFTSLAWSPDGTKLAAIGHDLAFLGATIHQLYVFEPERGTKRVLTADWDVHLGDAMVGDTHADAKGPGPIWKRDGTGLYVTASERGRVNVYFVPLDGPIVPIIEGDFHVYGLAIHPNEQQAVAAISEPTMIGDLYTISLESGTKTRLTRVNEALENEVTFADAEPFTYQSTDGWDIQGWIMKPPRLGDGEKAPLVVEIHGGPHTMYGFTFFHEFQLLASSGYVVLFTNPRGSHGYGQSFVNAVRGDYGGMDYEDIMAGVDAAIKQFAFIDETRLGVTGGSYGGFMTNWIVGHTNRFRAAVTQRSISNWLSFAGVSDIGYFFTKWEVGCDVWEDAERLWHHSPLKYVKNVRTPLLILHSEHDYRCPIEQAEQLFIALKQLGQETKLVRFPDANHDLSRTGNPALRLERLRQIVGWFDHYLKGPLD | failed |
| MSSSQQIAKNARKAGNILKTISNEGRSDILYKIHDALKANAHAIEEANKIDLAVAKETGLADSLLKRLDLFKGDKFEVMLQGIKDVAELEDPVGKVKMARELDDGLTLYQVTAPVGVLLVIFESRPEVIANITALSIKSGNAAILKGGKESVNTFREMAKIVNDTIAQFQSETGVPVGSVQLIETRQDVSDLLDQDEYIDLVVPRGSNALVRKIKDTTKIPVLGHADGICSIYLDEDADLIKAKRISLDAKTNYPAGCNAMETLLINPKFSKWWEVLENLTLEGGVTIHATKDLKTAYFDKLNELGKLTEAIQCKTVDADEEQDFDKEFLSLDLAAKFVTSTESAIQHINTHSSRHTDAIVTENKANAEKFMKGVDSSGVYWNASTRFADGFRYGFGAEVGISTSKIHARGPVGLDGLVSYQYQIRGDGQVASDYLGAGGNKAFVHKDLDIKTVTLZ | not failed |
| MTKSQIMDLSNFYQDTDYPSGRLIALLILSLGLTPAEIANLKKADFDTTFNILSIEKSQMKRILKLPEDLLPFLLESLEEDGDLVFEHNGKPYSRQWFFNQLTDFLNEKNEQQLTAQLLREQFILKQKENGKTMTELSRLLGLKTPITLERYYRLEHHHHHH | not failed |
| MNTLIIAKKEIVSAFRDKRTFLFMLAFPIVLIMILGTALTNAFDQQAAVGEVRVLYKDNSDGAFSQGFKTFVKEAKTSGVHFKKVLSDMDEKQEIKQGNYDAYLEIENSGIKLYQMDKNSMKNSIIQGMLTAFANRYNAAAEIIKAAPEQAGAVLGDAPGDNYIKETSLSSDRKPSSMDYYAVAMTTLIALYSALSASYLIRGERLRKTADRLIAAPVHKGEIFAGKLIGNLVTNGLCIFAVVAVSKYVFKAYWGEHLGLVAAVLFSIVLFAVCLGLGVSYLTRTGEAAVAIINVLIPLVAFFGGAYFPVDDAEGVLALITDLSPLAWTNEAIMNIIFADDLAAGLPAILLNIGLSLLFLLIAVVSLQRREGL | failed |
| MEYTVHTPSFRYHDLPYQDCLNKVGTVTLQDYRDDLVALIESLNQPPLLLGHSLGFLVAQMAAKKIEIDGMIFM | failed |
| MAEERHHTEHIPQWKKDEIENIKELIQSHKVFGMVRIEGILATKIQKIRRDLKDVAVLKVSRNTLTERALNQLGESIPEMTRYLDNQTALIFTNESPFKLYKLLEQTKTPSPIKAGAIAPEDIIVQKGPTSFPPGPILGELQSAGIPASIDAGKVAVKETKVVCKAGEAVPQKLATMLSKLEIYPLIVGLDLRAAYDDGTIYEPELLAVDESKYFSDIIRAAQNAFNLSVNTAYPTGATIGTLLAKAYAESKSLGVNAVILEPGVMDSLLAKAHVQMTSVASEAAEKDANAVDDDLREVLGAAASAAAAATVAAPAAEEEKKEEEPEEEEEDHAEEDGMAGLGALFGLEHHHHHH | not failed |
| MNIEDDENKEKKETCLSYIKKINMSEIINDEAIGKRAEYLWNLALSAVYINVKLSMKYITLIKKITKNNLLFDNICCHYCNLIYIPFYNCKITHSPNQGKATYTCLLCKRKKKINLQHLSKHKNIYPLKHSDKHKPSTSNLSNVNFFLINEIDNYEIKKNNVPLNKDDTSNTENQLITKQENKNEDTLKDVSCADMQKEEHIINQDNIINQDNIINQDNIINQDNIINQDNIINQDNIINQDNIINQDNIINQDNIINQDNIINKNDMYQNLSYLFRIDYGINKDDTQKGNEIYDKSIVNESEKCKSVHIENNKNDDNKNMNSESKNIKNERKRKSQNNNIAQNKNQGFPNVNMNDGFLNFNKSKKKKGKSILDIL | failed |
| MMAIQRVGIIGAGKVGIVLAGLALDAGYTVRISGSGSVKKIALTIKTLVPGAIASENADVVANSDIILLAIPLSRYKNIDADLLKGKLVIDAMNYWWETDGIREEVLDPSTTSSEQVQTYFKDAKIVKAFNHMGYHNLQEEARPKGDPKRKALFVTGNDPEAVATVAAFVDHMGFDTVVHNNLADGIMTEPGSPLFGASLRYAELKDIIDHFDQTEFGKEVAAQTHK | failed |
| MPHASQIVISISLFLMSMVAVAQKTIDIKKFNLVAEQVTELKKTDLVLSLKQLTTFENVLSALTVEQNLVYFKLLAEIQIEQNRYSAAKKTANEGLIIGRRLASPSILMSELLYLRGFSFESLGNIPRATKEYKKGLEVAESLHNKIQVALGLINLGAIAYLTDNYKRSLVLLNDAYNIAGQTDDEELKGTANTELGILYSLLRQGDQSMAYYQQSYKHFKKAGLLLSAHNSLHNIAITHIREKRYEQAITVFKTIIAESNKDTSSDSMFTVYSGMAWAHLKKKDSNIDAAHQYLLLAKQYLQFTEKVDYRLQFYFDEASVLYKLERFDEVLISIARIEKILVNHEDMPKRKRKGYVNIINLKAKVFYKQEKFKQAYETKSRVIALTEKLYENEDNRSIAQVRLKLEAEQADKQNEILNNQKSRYEASFNEAKLENEEQRIYLIISALLALAFAWVLVKLIQSQKKLKVALNVDKLTGTANRRRLMVKSQQAFELAKVKQYHLSLMMINIDHFKGINDSLGHSIGDEVLAKVAFIGANMVRKNDVFGRFSGGEFMVCLPKTNLKLAMETAECIRAAINEHTWQLNNIEKISVSIGVATLTDDSELISLVKRAEEQLYQAKASGKNKVCAQ | failed |
| MSKTPRIRIPPEVRQYVFQRDKFQCQSCGKTGLETNLTIDHIIPLARGGQNDISNLHTLCFDCNRCKTDKLDSRFRRHFEI | failed |
| MPRPSLRRGEETSGARSLHEIAPPAEKAVRKPLNLLPFRKDTPMTKDSYFHKSRAGVAGAPLFVLLHGTGGDENQFFDFGARLLPQATILSPVGDVSEHGAARFFRRTGEGVYDMVDLERATGKMADFIKANREHYQAGPVIGLGFSNGANILANVLIEQPELFDAAVLMHPLIPFEPKISPAKPTRRVLITAGERDPICPVQLTKALEESLKAQGGTVETVWHPGGHEIRSGEIDAVRGFLAAYGG | not failed |
| MRLGPAATSPSSGPRILPPAAHGDPRTAALPRATHLQIHDRRALSGLRDHPHLESVHLKGDFTLADLKALPTTLRHLDLSECTGSAKSFRAIAYLAGLPLESLNVAGAEIGDGGARLLAANPSLKSLNAASGGISASGARMLAESPTLESLDLTQNAIGDAGAQALAGSRSLRHLAVRNGLVTDLGTRALALNPALVSLDLGNLVTETGNQVEQDGYDKTANNITAQGAWALAQNRSLKSLSVQGNDLCGDDGVRALARNRTLTSLNVAFTNMTSASAKALADNPVLTSLSVRWNYGLDDAGAMELAMSRSLTSLDARDTGMSARGALALAANARISVWHDHANPVRAPLGEPPLSGLAGDPGQASRTAPGGAIWSSAAQARHVSAEAPANSAMTASTREGFALIDPFFNRVARESGLNVQAPQEMPWTRLRPSASEANHGNAGAHGASAEGLASSRMAASIREGLGLIDQYVDRMGREYGLPVRAPAAQPDSAAPEATQPTLPADVWQTIAAQADPRVRRTLSTVSKPLRAAALAATKHLTVWDKAAFSRLRNYPALESLSFHGPLSLADLRALPPSVRHLDLSGCTGSAVSEAGLAYLARLPLASLDLSDTGIGNRGAQALAASASLTSLNLSGNGIGTAGAEALGRNTVLTALDISANPIRNAGAQALAGSRSLTSLELRDTGIEDGGIEALAANTVLRSLDISGNDLSDQSAAALAANRTLTSLKANGCGLTNDMAQQLARIRSLRTLEVGSNSIGDAGVLTIARNASLRSLNLSRNPITPQGLYPLALSRTLKSLDVSRIGCGDRGALLLSGNRALTSLKLGFNRVSSEGARRLAANRTLVSLDLRGNTIDVAAARALANAEPLASLNVSDCRLDDAVACALAESRTLTSLDVSWNRLSHRAARALANNPVLASLYISHNDIGPEGAQALADSASLTFLDARANRIGEAGARLLEANTRMRGTPQNPHFLAQDVPE | failed |
| TKDFTWQTDWTFSLNNEKIKELAGGATYDSTGPWMVGEPLNSFYDFQYDRIWQNTQEDNHLMDVYRSLGLTFLPGQYKIVDQ | failed |
| MKWNSNLYDHKHSFVAEYGKSMINFVNVGKDQKILDLGCGTGVLTNELAKNGATVIGTDLSKNMIDKAKTNYPNLIFQVKDATNLSFKNEFDTVFSNAVFHWISNQEKLLHSIYTCLKDNGTLICEFGAQNNISQIQTAFEKVIEQKGYSYCSPFFFPSKEEYKLLLDQAGFEVKHIIEYDRPTPLADGEKGLRNWICQFFASDLLEFSDEQKEQILFETEKLCKNSIWKNNQWVADYRRIQIIAVKNKNNGTK | failed |
| MKTSIIILTCNNLRYSRRCIESIKKYTEKEAYEIIVVDNNSNDGTRNWLSKQKAIKKIYNNVNVGFPRGCNMGIKVACGSEVLLLNNDVVVTHNWLNNLRNCLYSSYEIGAVGPISNNCSNGQKINVRYDSIEDMHRFSKKYNISNKKKWTEVKRLIGFCFLIKRNVIRKVGLFDERFTPGNFEDDDYCIRMRKIGFRLMLCKDTFVHHYGSVSFKNTQYLKLLEVNKSKLEKKWGKSYDKLVLEHHHHHH | failed |
| MKVASGSTATAAAGPSCALKAGKTASGAGEVVRCLSEQSVAISRCAGGAGARLPALLDEQQVNVLLYDMNGCYSRLKELVPTLPQNRKVSKVEILQHVIDYIRDLQLELNSESEVGTPGGRGLPVRAPLSTLNGEISALTAEAACVPADDRILCR | failed |
| MEKQNLKNTEVNLIYGVDDDLDLPKKVLFGLQHIFAAFGGIIVVPLVIATSLGFDSKVTTALISASILGSGLATIIQAKGVGKVGARVACIMGTDFTFVSPAISVGSVLGLPGIIGATILGSLFEVILSFFIKPLMKFFPPLVTGTVVALIGLTLLPVSIDWAAGGAGSANYASLENLAVAMFVLVITLLLNNYGKGMISSASILIGIVVGYIVCIPLGLVDFTPVKEASWLSFPKILEFGVTFDAKAVMAFIPAYFVATIGTVGCLKAIGETSNIDIGDKRVAAGVLSDGVGSALGGLVGSCPNTSFSQNIGIISLTKVASRHVAVMAGILLVILGFLPKVAAIITGIPNPVLGGVGIMMFGTVAAAGIRTLSNIKLTERNLLIIAISMGLGLGVTFRPDVIHNLPEAIRMIFSSGISTGTIAALILNAVLKESPTSMEFENMYDEETKAS | failed |
| NNQIGFCGVRKNINGNLYLLVYGMPAAINIDPIEKKPILHMYPNSLIYSISTVGCSFACQYCQNYDISQRRNIEGFDYSPEEIVNSAIEDGCRGIAYTYNEPSIFMEFAHDVGILARKRGLINIFVTNGYETPEAVEYSKDFLDAATVDFKGNASNDFYRKYISVPSADPIFDTIKLMKESGIHVEITDLVVPRVGDKLSDARSMLERLISILGYEFPISFLRFHPDYKMMDLPPTPLETLKAHYNLAVSMGLKYVYIGNVPGYYEDTYCPNCHSLLIKRHGFNSSVV | failed |
| MRAGVREVIDDSSERTLQQVIERAFLRTKGAIIRQKRVFGFVSAKGGDGGSCIAANFAFALSQEPDIHVLAVDISLPFGDLDMYLSGNTHSQDLADISNASDRLDKSLLDTMVQHISPSLDLIPSPATFEKIVNIEPERVSDLIHIAASFYDYIIVDFGASIDHVGVWVLEHLDELCIVTTPSLQSLRRAGQLLKLCKEFEKPISRIEIILNRADTNSRITSDEIEKVIGRPISKRIPQDEDAMQESLLSGQSVLKVAPKSQLSKTIVDWALHLNGVSRPNKRSIWERLKIK | not failed |
